Data as given in patent publication US20100113355A1.

Key:
[1] = target: T1, Biotin-… antigenic peptide (epitope sequence from candidal Hsp90) (Candida ("candidal Hsp90")); assay: ELISA, biotinylated hsp90 peptide on streptavidin plate, anti-His-HRP detection; % activity against Mycograb reference standard; site 1; sample in 50 mM Tris, pH 9.0
[2] = target: T1, Biotin-… antigenic peptide (epitope …); assay: ELISA, biotinylated hsp90 peptide on streptavidin plate, anti-His-HRP detection; % activity against Mycograb reference standard; site 2; sample in 50 mM Tris, pH 9.0
[3] = target: T1, Biotin-… antigenic peptide (epitope …); assay: ELISA, biotinylated hsp90 peptide on streptavidin plate, anti-His-HRP detection; % activity against Mycograb reference standard; site 1; sample in 50 mM Tris, 3 mM DTT, pH 9.0
[4] = target: T1, Biotin-… antigenic peptide (epitope …); assay: ELISA, biotinylated hsp90 peptide on streptavidin plate, anti-His-HRP detection; % activity against Mycograb reference standard; site 2; sample in 50 mM Tris, 3 mM DTT, pH 9.0
[5] = target: T1, Biotin-… antigenic peptide (epitope …); assay: ELISA, biotinylated hsp90 peptide on streptavidin plate, anti-His-HRP detection; % activity against Mycograb reference standard; site 1; sample in 0.5 M urea, 0.2 M L-arginine pH 9.5
[6] = target: T1, Biotin-… antigenic peptide (epitope …); assay: ELISA, biotinylated hsp90 peptide on streptavidin plate, anti-His-HRP detection; % activity against Mycograb reference standard; site 2; sample in 0.5 M urea, 0.2 M L-arginine pH 9.5
[7] = target: T1, Biotin-… antigenic peptide (epitope …); assay: ELISA, biotinylated hsp90 peptide on streptavidin plate, anti-His-HRP detection; % activity against Mycograb reference standard; site 1; sample in 50 mM Tris, 1 M sucrose, ~0.2% Tween20, 3 mM DTT, pH 3.0
[8] = target: T1, Biotin-… antigenic peptide (epitope …); assay: ELISA, biotinylated hsp90 peptide on streptavidin plate, anti-His-HRP detection; % activity against Mycograb reference standard; site 2; sample in 50 mM Tris, 1 M sucrose, ~0.2% Tween20, 3 mM DTT, pH 3.0

B1: MYC123 ("wild type" Mycograb) scFv peptide (scFv)
scFv: MAEVQLVESGAEVKKPGESLRISCKGSGCIISSYWISWVRQMPGKGLEWMGKIDPGDSYINYSPSFQGHVTISADKSINTAYLQWNSLKASDTAMYYCARGGRDFGDSFDYWGQGTLVTVSSGGGGSGGGGSGGGGSDVVMTQSPSFLSAFVGDRITITCRASSGISRYLAWYQQAPGKAPKLLIYAASTLQTGVPSRFSGSGSGTEFTLTINSLQPEDFATYYCQHLNSYPLTFGGGTKVDIKRAAALEHHHHHH
Q: Which ELISA Site 1 [%] (activity compared with the reference) [1] does the source give for B1 here?
A: 71%

Q: What about the ELISA Site 2 [%] (activity compared with the reference) [2] of the same binder?
A: 95%

Q: What about the ELISA Site 1 [%] (activity compared with the reference) [3] of the same binder?
A: 85%

Q: What about the ELISA Site 2 [%] (activity compared with the reference) [4] of the same binder?
A: 131%

Q: And the ELISA Site 1 [%] (activity compared with the reference) [5]?
A: 90%

Q: What about the ELISA Site 2 [%] (activity compared with the reference) [6] of the same binder?
A: 78%

Q: What about the ELISA Site 1 [%] (activity compared with the reference) [7] of the same binder?
A: 135%

Q: What about the ELISA Site 2 [%] (activity compared with the reference) [8] of the same binder?
A: 130%
